Assay results reported in US20200317768A1 (published 2020).
Substitutions are numbered along the chain they refer to. Names and notes keep the numbering of the source.

Columns and labels:
[1] = biological target: T1, human FcγRIIb extracellular domain, C-terminal His-tag (human, UniProt P31994 43-217); assay: SPR (BIACORE), antibody captured, soluble FcgR as analyte, 25C
T1 construct: also called FcgRIIb; not shown: His-tag added to the C-terminus
T1 sequence: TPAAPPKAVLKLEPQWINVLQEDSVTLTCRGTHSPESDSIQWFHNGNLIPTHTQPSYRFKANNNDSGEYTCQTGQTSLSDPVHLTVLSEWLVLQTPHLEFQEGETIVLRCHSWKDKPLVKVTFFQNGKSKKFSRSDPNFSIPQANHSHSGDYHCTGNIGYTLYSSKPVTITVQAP
Protocol: (§1) The kinetic analysis of interactions between these antibodies and FcγR was carried out using BIACORE® T200 or BIACORE® 4000 (GE Healthcare). HBS-EP+ (GE Healthcare) was used as the running buffer, and the measurement temperature was set to 25° C. A chip produced by immobilizing Protein A. Protein A/G or mouse anti-human IgG kappa light chain (BD Biosciences) onto a Series S Sensor Chip CM4 or CM5 (GE Healthcare) by the amine-coupling method was used. […] After the measurement, the antibody captured on the chip was washed off by allowing reaction with 10 mM glycine-HCl, pH1.5 and 25 mM NaOH so that the chip was regenerated and used repeatedly. The sensorgrams obtained as measurement results were analyzed by the 1:1 Langmuir binding model using the BIACORE® Evaluation Software to calculate the binding rate constant ka (L/mol/s) and dissociation rate constant kd (l/s), and the dissociation constant KD (mol/L) was calculated from these values. […] Regarding such interactions, KD values were calculated using the following 1:1 binding model described in BIACORE® T100 Software Handbook BR1006-48 Edition AE.
(§2) The behavior of interacting molecules according to the 1:1 binding model on BIACORE® can be described by Equation 1: Req=C·R max/(KD+C)+RI, wherein, Req is a plot of steady-state binding levels to analyte concentration. C is concentration, RI is bulk refractive index contribution in the sample, and Rmax is analyte binding capacity of the surface. When this equation is rearranged, KD can be expressed as Equation 2: KD=C·Rmax/(Req−RI)−C. KD can be calculated by substituting the values of Rmax, RI, and C into Equation 1 or Equation 2. From the current measurement conditions, RI=0, C=2 μmol/L can be used.

[2] = biological target: T2, cynomolgus monkey FcγRIIIaS extracellular domain, C-terminal His-tag (cynomolgus monkey, UniProt A3RFZ7 21-206 (rhesus entry)); assay: as above
T2 construct: also called cyno FcγRIIIaS; FcgRIIIaS; not shown: His-tag added to the C-terminus
T2 sequence (A3RFZ7 21-206): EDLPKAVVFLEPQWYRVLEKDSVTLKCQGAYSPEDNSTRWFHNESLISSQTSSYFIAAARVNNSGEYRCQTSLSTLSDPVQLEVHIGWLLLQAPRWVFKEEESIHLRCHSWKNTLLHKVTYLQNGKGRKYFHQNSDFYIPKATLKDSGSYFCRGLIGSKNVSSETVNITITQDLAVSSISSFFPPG
Protocol: as §1, §2

[3] = biological target: T3, cynomolgus monkey FcγRIIa2 extracellular domain, C-terminal His-tag (cynomolgus monkey); assay: SPR; KD of SG1 divided by KD of variant;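 further: relative to parent M103205H795-SG1 carrying the SG1 human heavy chain constant region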
T3 construct: also called cyno FcγRIIa2; FcgRIIa2; not shown: His-tag added to the C-terminus
T3 chain: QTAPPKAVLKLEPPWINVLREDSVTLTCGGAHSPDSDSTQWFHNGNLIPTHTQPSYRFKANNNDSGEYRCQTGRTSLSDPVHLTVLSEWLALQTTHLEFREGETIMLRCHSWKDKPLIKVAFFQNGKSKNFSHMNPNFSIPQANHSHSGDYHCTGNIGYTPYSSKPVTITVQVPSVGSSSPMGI
Protocol: as §1

[4] = biological target: T4, cynomolgus monkey FcγRIIb extracellular domain, C-terminal His-tag (cynomolgus monkey); assay: SPR; KD of SG1 divided by KD of variant;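 further: relative to parent M103205H795-SG1 carrying the SG1 human heavy chain constant region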
T4 construct: also called cyno FcγRIIb; cynoFcγRIIb; not shown: His-tag added to the C-terminus
T4 chain: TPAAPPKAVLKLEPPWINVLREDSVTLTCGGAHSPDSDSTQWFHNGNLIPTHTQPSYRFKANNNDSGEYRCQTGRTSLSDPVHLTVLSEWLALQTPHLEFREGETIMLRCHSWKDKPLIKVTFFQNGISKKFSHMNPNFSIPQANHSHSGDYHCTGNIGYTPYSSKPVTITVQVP
Protocol: as §1

[5] = biological target: T1, human FcγRIIb extracellular domain, …; assay: SPR; KD of SG1 divided by KD of variant;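 further: relative to parent M103205H795-SG1 carrying the SG1 human heavy chain constant region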
Protocol: as §1

[6] = biological target: T2, cynomolgus monkey FcγRIIIaS …; assay: SPR; KD of SG1 divided by KD of variant;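 further: relative to parent M103205H795-SG1 carrying the SG1 human heavy chain constant region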
Protocol: as §1

[7] = biological target: T5, cynomolgus monkey FcγRIIa1 extracellular domain, C-terminal His-tag (cynomolgus monkey); assay: SPR; KD of SG1 divided by KD of variant
T5 construct: also called cyno FcγRIIa1; FcgRIIa1; not shown: His-tag added to the C-terminus
T5 chain: T3 chain with T95P, A121T, K127I, S128A, N130K, N135D, Q142R
Protocol: as §1

[8] = biological target: T6, human FcγRIIIaV extracellular domain, C-terminal His-tag (human, UniProt P08637 17-208); assay: SPR; KD of SG1 divided by KD of variant
T6 construct: also called FcgRIIIaV; not shown: His-tag added to the C-terminus
T6 sequence (P08637 17-208 F176V): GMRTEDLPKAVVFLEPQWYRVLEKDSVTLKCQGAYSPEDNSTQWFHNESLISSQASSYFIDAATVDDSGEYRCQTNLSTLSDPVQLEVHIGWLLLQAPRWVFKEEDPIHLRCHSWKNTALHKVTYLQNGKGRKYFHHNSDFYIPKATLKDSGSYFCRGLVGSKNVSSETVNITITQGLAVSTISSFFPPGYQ
Protocol: as §1

[9] = biological target: T7, human FcγRIIaR extracellular domain, C-terminal His-tag (human, UniProt P12318 34-217); assay: SPR; KD of SG1 divided by KD of variant
T7 construct: also called human FcγRIIa (type R); FcgRIIaR; not shown: His-tag added to the C-terminus
T7 chain: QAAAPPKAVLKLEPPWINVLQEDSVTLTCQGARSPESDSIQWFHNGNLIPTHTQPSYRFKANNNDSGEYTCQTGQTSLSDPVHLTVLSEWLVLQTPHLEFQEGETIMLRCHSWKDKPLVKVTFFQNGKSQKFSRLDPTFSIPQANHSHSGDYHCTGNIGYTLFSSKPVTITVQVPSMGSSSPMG
Protocol: as §1

[10] = biological target: T8, cynomolgus monkey FcγRIIa3 extracellular domain, C-terminal His-tag (cynomolgus monkey); assay: SPR; KD of SG1 divided by KD of variant
T8 construct: also called cyno FcγRIIa3; FcgRIIa3; not shown: His-tag added to the C-terminus
T8 chain: T3 chain with K127I, N130K, H133P, Q142R
Protocol: as §1

B1: MS1032LO06-SG1 (M103205H795-SG1/M103202L889-SK1) (antibody, human IgG1, kappa)
heavy: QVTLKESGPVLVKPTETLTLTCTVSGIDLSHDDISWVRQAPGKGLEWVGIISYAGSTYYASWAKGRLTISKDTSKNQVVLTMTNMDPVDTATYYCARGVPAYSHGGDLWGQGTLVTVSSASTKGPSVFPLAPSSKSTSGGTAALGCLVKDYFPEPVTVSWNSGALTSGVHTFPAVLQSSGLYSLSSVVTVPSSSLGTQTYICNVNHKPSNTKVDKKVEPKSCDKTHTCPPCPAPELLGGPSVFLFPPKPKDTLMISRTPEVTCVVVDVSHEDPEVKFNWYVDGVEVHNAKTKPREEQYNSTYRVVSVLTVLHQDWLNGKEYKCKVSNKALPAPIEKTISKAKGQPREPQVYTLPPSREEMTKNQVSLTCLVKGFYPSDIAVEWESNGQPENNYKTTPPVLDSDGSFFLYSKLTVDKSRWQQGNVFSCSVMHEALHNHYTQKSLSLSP
light: DIVMTQSPATLSLSPGERATLSCTSSQSVYHANWLSWFQQKPGQPPKLLIYWASTLAYGVPSRFSGSGSGTDFTLTISSLQPEDAATYYCAGGYGGGRYAFGQGTKVEIKRTVAAPSVFIFPPSDEQLKSGTASVVCLLNNFYPREAKVQWKVDNALQSGNSQESVTEQDSKDSTYSLSSTLTLSKADYEKHKVYACEVTHQGLSSPVTKSFNRGEC
notes: Anti-latent myostatin antibody
For B1, the Kd [1] was 4700 nM, the Kd [2] was 280 nM and the “KD fold (SG1 = 1)” value [3] was 1 fold. The “KD fold (SG1 = 1)” value [4] was 1 fold, the “KD fold (SG1 = 1)” value [5] was 1 fold and the “KD fold (SG1 = 1)” value [6] was 1 fold. For the same binder, the “KD fold (SG1 = 1)” value [7] was 1 fold, the “KD fold (SG1 = 1)” value [8] was 1 fold and the “KD fold (SG1 = 1)” value [9] was 1 fold. The “KD fold (SG1 = 1)” value [10] was 1 fold.

B2: MS1032LO06-PK55 (M103205H795-PK55/M103202L889-SK1) (antibody, human IgG1, kappa)
heavy: QVTLKESGPVLVKPTETLTLTCTVSGIDLSHDDISWVRQAPGKGLEWVGIISYAGSTYYASWAKGRLTISKDTSKNQVVLTMTNMDPVDTATYYCARGVPAYSHGGDLWGQGTLVTVSSASTKGPSVFPLAPSSKSTSGGTAALGCLVKDYFPEPVTVSWNSGALTSGVHTFPAVLQSSGLYSLSSVVTVPSSSLGTQTYICNVNHKPSNTKVDKKVEPKSCDKTHTCPPCPAPELLNGPSVFLFPPKPKDTLMISRTPEVTCVVVDVSDEDPEVKFNWYVDGVEVHNAKTKPREEQYNSTYRVVSVLTVLHRDWLNGKEYKCKVSNKALPKPIEKTISKAKGQRREPQVYTLPPSREEMTKNQVSLTCLVKGFYPSDIAVEWESNGQPENNYKTTPPVLDSDGSFFLYSKLTVDKSRWQQGNVFSCSVMHEALHNHYTQKSLSLSP
light: B1 light
notes: CH PK55 = SG1 with G236N/H268D/Q311R/A330K/P343R (EU numbering); also called MS103205H795-PK55
With B2 the Kd [1] was 760 nM, the Kd [2] was 3300 nM and the “KD fold (SG1 = 1)” value [3] was 4.1 fold. For the same binder, the “KD fold (SG1 = 1)” value [4] was 5.4 fold, the “KD fold (SG1 = 1)” value [5] was 6.3 fold and the “KD fold (SG1 = 1)” value [6] was 0.08 fold. For the same binder, the “KD fold (SG1 = 1)” value [7] was 3.3 fold, the “KD fold (SG1 = 1)” value [8] was 0.05 fold and the “KD fold (SG1 = 1)” value [9] was 0.7 fold. For the same binder, the “KD fold (SG1 = 1)” value [10] was 4.3 fold.

B3: MS1032LO06-MY201 (M103205H795-MY201/M103202L889-SK1) (antibody, human IgG1, kappa)
heavy: B2 heavy with R313Q, R345P
light: B1 light
notes: CH MY201 = SG1 with G236N/H268D/A330K (EU numbering); also called MS103205H795-MY201
B3 was tested, and the Kd [1] was 850 nM, the Kd [2] was 3700 nM and the “KD fold (SG1 = 1)” value [3] was 4 fold. For the same binder, the “KD fold (SG1 = 1)” value [4] was 5.8 fold, the “KD fold (SG1 = 1)” value [5] was 5.6 fold and the “KD fold (SG1 = 1)” value [6] was 0.08 fold. The “KD fold (SG1 = 1)” value [7] was 3.2 fold, the “KD fold (SG1 = 1)” value [8] was 0.02 fold and the “KD fold (SG1 = 1)” value [9] was 0.8 fold. For the same binder, the “KD fold (SG1 = 1)” value [10] was 4.9 fold.

B4: MS1032LO06-PK57 (M103205H795-PK57/M103202L889-SK1) (antibody, human IgG1, kappa)
heavy: B2 heavy with R345P, N386R, D415R
light: B1 light
notes: CH PK57 = SG1 with G236N/H268D/Q311R/A330K/N384R/D413R (EU numbering); also called MS103205H795-PK57
For B4, the Kd [1] was 1200 nM, the Kd [2] was 4300 nM and the “KD fold (SG1 = 1)” value [3] was 2.8 fold. For the same binder, the “KD fold (SG1 = 1)” value [4] was 3.8 fold, the “KD fold (SG1 = 1)” value [5] was 4.1 fold and the “KD fold (SG1 = 1)” value [6] was 0.06 fold. The “KD fold (SG1 = 1)” value [7] was 2.5 fold, the “KD fold (SG1 = 1)” value [8] was 0.03 fold and the “KD fold (SG1 = 1)” value [9] was 0.5 fold. For the same binder, the “KD fold (SG1 = 1)” value [10] was 2.7 fold.

B5: MS1032LO06-PK56 (M103205H795-PK56/M103202L889-SK1) (antibody, human IgG1, kappa)
heavy: B2 heavy with D415R
light: B1 light
notes: CH PK56 = SG1 with G236N/H268D/Q311R/A330K/P343R/D413R (EU numbering); also called MS103205H795-PK56
For B5, the Kd [1] was 1000 nM, the Kd [2] was 4400 nM and the “KD fold (SG1 = 1)” value [3] was 3.1 fold. For the same binder, the “KD fold (SG1 = 1)” value [4] was 3.9 fold, the “KD fold (SG1 = 1)” value [5] was 4.7 fold and the “KD fold (SG1 = 1)” value [6] was 0.06 fold. The “KD fold (SG1 = 1)” value [7] was 2.6 fold, the “KD fold (SG1 = 1)” value [8] was 0.06 fold and the “KD fold (SG1 = 1)” value [9] was 0.5 fold. For the same binder, the “KD fold (SG1 = 1)” value [10] was 3.5 fold.

B6: MS1032LO06-MY352 (M103205H795-MY352/M103202L889-SK1) (antibody, human IgG1, kappa, name in EU numbering)
heavy: B2 heavy with R345P, D415R
light: B1 light
notes: Printed substitutions: G236N/H268D/Q311R/A330K/D413R (EU numbering); also called MS103205H795-MY352
With B6 the Kd [1] was 1000 nM, the Kd [2] was 4000 nM and the “KD fold (SG1 = 1)” value [3] was 3.5 fold. The “KD fold (SG1 = 1)” value [4] was 4.7 fold, the “KD fold (SG1 = 1)” value [5] was 4.6 fold and the “KD fold (SG1 = 1)” value [6] was 0.07 fold. For the same binder, the “KD fold (SG1 = 1)” value [7] was 2.7 fold, the “KD fold (SG1 = 1)” value [8] was 0.06 fold and the “KD fold (SG1 = 1)” value [9] was 0.6 fold. For the same binder, the “KD fold (SG1 = 1)” value [10] was 3.9 fold.

B7: MS1032LO06-MY351 (M103205H795-MY351/M103202L889-SK1) (antibody, human IgG1, kappa)
heavy: B2 heavy with R345P, D415K
light: B1 light
notes: CH MY351 = SG1 with G236N/H268D/Q311R/A330K/D413K (EU numbering); also called MS103205H795-MY351
With B7 the Kd [1] was 970 nM, the Kd [2] was 4100 nM and the “KD fold (SG1 = 1)” value [3] was 3.6 fold. For the same binder, the “KD fold (SG1 = 1)” value [4] was 5 fold, the “KD fold (SG1 = 1)” value [5] was 4.9 fold and the “KD fold (SG1 = 1)” value [6] was 0.07 fold. The “KD fold (SG1 = 1)” value [7] was 3 fold, the “KD fold (SG1 = 1)” value [8] was 0.08 fold and the “KD fold (SG1 = 1)” value [9] was 0.6 fold. For the same binder, the “KD fold (SG1 = 1)” value [10] was 4 fold.
